The assay deals with CD46 (human) (UniProt P15529). Put plainly: Kd of fiber knob to CD46, Table 1 (method not given).
UniProt P15529, sequence (P15529 35-343 limits assumed): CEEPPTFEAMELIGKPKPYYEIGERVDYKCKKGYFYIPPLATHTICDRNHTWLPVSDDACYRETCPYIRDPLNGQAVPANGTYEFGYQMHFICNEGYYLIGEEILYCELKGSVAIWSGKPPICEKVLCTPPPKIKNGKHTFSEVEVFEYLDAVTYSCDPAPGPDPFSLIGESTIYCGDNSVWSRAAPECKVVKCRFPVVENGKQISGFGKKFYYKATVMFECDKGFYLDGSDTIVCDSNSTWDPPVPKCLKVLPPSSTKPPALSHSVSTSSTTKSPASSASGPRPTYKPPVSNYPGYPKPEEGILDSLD
Consider Ad11 (fiber knob) (from UniProt P33681), for which the Kd (in general, a measure of binding affinity in units of concentration) came to 11.2 nM. That is a double-digit nanomolar value. The substance “Ad35 fiber knob mutant A8: Ile192Val Ile256Val (from UniProt Q92854)” registered a Kd of 13.7 nM. Under “Ad35 fiber knob mutant B4: Thr245Ala (from UniProt Q8NHJ6)” stands 7.64 nM; under “Ad35 fiber knob mutant B5: Ile256Leu (from UniProt P46977)”, 11 nM.

The values above are taken from patent US20220257796A1.
